Measured values from patent publication US20250109206A1.

Columns and labels:
[1] = biological target: human recombinant CD3 δε heterodimer (human) (UniProt P07766); test: SPR (Biacore 8K), Fab captured, CD3 δε heterodimer as analyte
[2] = biological target: cynomolgus monkey recombinant CD3 δε heterodimer (cynomolgus) (UniProt Q95LI5); test: SPR (Biacore), Fab captured on anti-human Fab chip, cyno CD3 δε heterodimer as analyte, 1:1 binding fit
[3] = biological target: human recombinant CD3 δε heterodimer (human) (UniProt P07766); test: SPR (Biacore), Fab captured on anti-human Fab chip, human CD3 δε heterodimer as analyte, 1:1 binding fit

Sequence of cynomolgus monkey recombinant CD3 δε heterodimer (cynomolgus) (Q95LI5 22-117, stated change not applied, chain 1 of 2): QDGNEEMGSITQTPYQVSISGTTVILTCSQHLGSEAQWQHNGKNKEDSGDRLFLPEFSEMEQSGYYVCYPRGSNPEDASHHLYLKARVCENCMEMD
Sequence of cynomolgus monkey recombinant CD3 δε heterodimer (cynomolgus) (Q95LI8 22-105, stated change not applied, chain 2 of 2, further chain): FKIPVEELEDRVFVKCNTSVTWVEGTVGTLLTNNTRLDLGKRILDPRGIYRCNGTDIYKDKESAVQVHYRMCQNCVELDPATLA
Sequence of human recombinant CD3 δε heterodimer (human) (P07766 23-126, stated change not applied, chain 1 of 2): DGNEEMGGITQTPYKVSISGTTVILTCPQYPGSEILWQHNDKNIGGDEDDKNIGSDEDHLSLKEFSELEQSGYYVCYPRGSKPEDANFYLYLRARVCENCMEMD
Sequence of human recombinant CD3 δε heterodimer (human) (P04234 22-105, stated change not applied, chain 2 of 2, further chain): as the sequence (Q95LI8 22-105, stated change not applied, chain 2 of 2, further chain) above, with V5I, K15N, V20I, T32S, N33D, N34I, A64T, N74S, L83V counted along it

Row | Kd [1] | Kd [2] | koff [2] | kon [2] | kon [3] | Binder
1 | 29 nM | 28.4 nM | 0.00448 s⁻¹ | 158000 M⁻¹ s⁻¹ | 162000 M⁻¹ s⁻¹ | Anti-CD3 Fab-001 (Fab, V domains shown) VH: EVQLVESGGGLVQPGGSLRLSCAASGFTFNTYAMNWVRQAPGKGLEWVARIRSKYNNYATYYADSVKDRFTISRDDSQSILYLQMNSLKTEDTAVYYCVRHGNFGNSYVSWFAYWGQGTLVTVSS VL: QAVVTQEPSLTVSPGGTVTLTCRSSTGAVTTSNYANWVQQKPDHLPRALIGGTNKRAPGTPARFSGSLLGDKAALTLSGVQPEDEAEYYCALWYSNLWVFGGGTKLTVL
2 | 46 nM | 71.8 nM | 0.0113 s⁻¹ | 157000 M⁻¹ s⁻¹ | 433000 M⁻¹ s⁻¹ | Anti-CD3 Fab-002 (Fab, V domains shown) VH: EVQLVESGGGLVQPGGSLRLSCAASGFTFNTYAMNWVRQAPGKGLEWVGRIRSKYNNYATYYADSVKGRFTISRDDSKNSLYLQMNSLKTEDTAVYYCARHGNFGNSYVSWFAYWGQGTLVTVSS VL: QAVVTQEPSLTVSPGGTVTLTCRSSTGAVTTSNYANWVQQKPDHLPRALIGGTNKRAPGVPARFSGSLLGDKAALTISGAQPEDEAIYYCALWYSNLWVFGGGTKLTVL
